Data taken from PMC2138355.

Biological target: fourth component of human complement (C'4) (human)
Assay: sucrose density gradient ultracentrifugation

s rate of C'2 in mixtures with C'4 (pH 5): 7.7 S | s rate of C'2 in mixtures with C'4 (pH 8): 13.5 S
Substance: C'2 oxidized by treatment with a critical concentration of iodine (oxyC'2) (natural protein)
